The source of these data is US20240159758A1 (OPKO DIAGNOSTICS, published 2024).

The target of assay [1] is T1, Intact prostate specific antigen (iPSA) (Homo sapiens (Human), UniProt P07288 25-261).
T1 construct: also called Intact PSA
The experiment in a line: sandwich (noncompetitive) DELFIA immunoassay, capture probe. Here is the method:
(§1) The concentrations of tPSA and fPSA are determined with commercial assays approved for use in human diagnostics by the FDA (Roche™ Cobas® instrument and Elecsys® assays). The concentrations of iPSA and hK2 are determined using a test developed to run on the PerkinElmer® AutoDELFIA® instrument.
(§2) The presence of iPSA and hK2 are detected by a sandwich (noncompetitive) immunoassay. The iPSA assay employs two distinct mouse monoclonal antibody products. The capture probe is a biotinylated, recombinant His₆-Cys-tagged Fab fragment of the monoclonal antibody 5A10 with specificity for fPSA (of which iPSA is a component). The tracer is a Europium-labelled monoclonal antibody 4D4, with specificity to iPSA and complexed PSA (PSA-ACT). In combination, the reagents are specific for iPSA. The hK2 assay employs five distinct mouse monoclonal antibody products. The capture probe is a biotinylated, F(ab)₂ fragment of 6H10 monoclonal antibody with specificity for hK2 and tPSA. […]
(§3) The signals obtained from the detection of iPSA and hK2 in the immunoassays are then compared to the signals obtained from the detection of a set of standards (e.g. the calibrator solutions) using the same iPSA and hK2 antibodies. […] The reporting range is defined by the limit of quantification (LoQ) at the low end and the highest calibrator at the high end. For the iPSA and hK2 assays, the LoQ was determined using CLSI EP-17A.

Assay [2] concerns the target T2, Free prostate specific antigen (fPSA) (Homo sapiens (Human), UniProt P07288 25-261).
T2 construct: also called Free PSA
The description is as above. As to the method: as §1, §2, §3

T2 sequence (P07288 25-261 limits assumed): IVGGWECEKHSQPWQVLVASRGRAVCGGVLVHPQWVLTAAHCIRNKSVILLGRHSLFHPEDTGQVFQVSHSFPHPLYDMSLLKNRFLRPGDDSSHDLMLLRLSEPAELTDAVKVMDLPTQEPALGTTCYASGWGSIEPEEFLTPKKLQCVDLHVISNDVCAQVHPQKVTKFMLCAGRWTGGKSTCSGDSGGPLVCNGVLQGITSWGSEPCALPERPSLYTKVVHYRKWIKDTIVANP
T1 sequence (P07288 25-261 limits assumed): as above

B1: biotinylated, recombinant His6-Cys-tagged Fab fragment of the monoclonal antibody 5A10 (Fab, V domains shown)
VH: EVQLVESGPGILQPSQTLSLTCSFSGFSLSTTGMGVSWIRQPSGKGLEWLAHLYWDEDKRYNPSLKSRLTISEDSSRNQVFLKITSVGPADSATYYCARKGYYGYFDYWGQGTALTVSS
VL: DIVMTQSQKFMSTSVGDRVSVTCKASQNVNTDVAWYQQKPGQSPKALIFSTSYRSSGVPDRFTGSGSGTDFTLTITNVQSEDLAEYFCQQYSNYPLTFGAGTKVDLN
modifications: biotinylated (site not stated)
notes: Mouse monoclonal origin; also called Fab 5A10; 5A10 Fab
Regarding B1, the binding result in assay [1] and in assay [2] was “binds” each time.
